B1: WSCP M4FJ52 from Chinese cabbage (Brassica rapa subsp. Pekinensis) (natural protein)
chain: not shown
B2: WSCP A0A087HRG5 from Arabis alpina (natural protein)
chain: not shown
B3: WSCP from Arabidopsis thaliana (natural protein, UniProt Q9C7S6 24-215, looked up)
chain: NEPVKDTAGNPLNTREQYFIQPVKTESKNGGGLVPAAITVLPFCPLGITQTLLPYQPGLPVSFVLALGVGSTVMTSSAVNIEFKSNIWPFCKEFSKFWEVDDSSSAPKEPSILIGGKMGDRNSSFKIEKAGEGARANVYKLTTFYGTVGAIPGVWLSAPQLIITKDTAKTLLVKFKKVDDATTATSNLYFPG

This series concerns the molecule itself. Nature of the series: SEC.
On to B1, for which the “stoichiometry N” value was determined as 4.
The figure for B2 is 4.
The figure for B3 is 4.
